Values belong to the substance of their own block, whether it stands above or below them.
Experiments:
[1] = target: 70S ribosome on biotinylated mRNA with the UAA stop codon in the A site (no release factor bound) (E. coli) (UniProt P0AG67); assay: single-molecule fluorescence in zero-mode waveguides (factor occupancy with intersubunit FRET); as a4 (MF-UAA mRNA, Cy5.5-RF1, Cy5-RF3, GTP) but at 12°C
[2] = target: post-termination RF1-70S complex (Cy5.5-RF1 bound to the non-rotated 70S ribosome) (not stated | E. coli) (UniProt P0A7I0); assay: single-molecule fluorescence in zero-mode waveguides (factor occupancy with intersubunit FRET); Cy5-RF3 occupancy on the Cy5.5-RF1-bound non-rotated ribosome with 50% GDP (1:1 ratio of GTP:GDP); triple exponential fit
[3] = target: post-termination RF1-70S complex (Cy5.5-RF1 bound to the non-rotated 70S ribosome) (not stated | E. coli) (UniProt P0A7I0); assay: single-molecule fluorescence in zero-mode waveguides (factor occupancy with intersubunit FRET); pre-elongated immobilised 70S with the stop codon in the A site; 75 nM Cy5-RF3, 20 nM Cy5.5-RF1, 4 mM GDP, polymix buffer, 20°C
[4] = target: 70S ribosome on biotinylated mRNA with the UAA stop codon in the A site (no release factor bound) (E. coli) (UniProt P0AG67); assay: single-molecule fluorescence in zero-mode waveguides (factor occupancy with intersubunit FRET); ribosome immobilised through biotinylated mRNA; Cy5.5-RF1 and Cy5-RF3 tracked together, 4 mM GTP, Tris-based polymix buffer pH 7.5, 20°C
[5] = target: post-termination RF1-70S complex (Cy5.5-RF1 bound to the non-rotated 70S ribosome) (not stated | E. coli) (UniProt P0A7I0); assay: as above
[6] = target: 70S ribosome on biotinylated mRNA with the UAA stop codon in the A site (no release factor bound) (E. coli) (UniProt P0AG67); assay: single-molecule fluorescence in zero-mode waveguides (factor occupancy with intersubunit FRET); pre-elongated immobilised 70S with the stop codon in the A site; 75 nM Cy5-RF3, 20 nM Cy5.5-RF1, 4 mM GDPCP, polymix buffer, 20°C, no RRF or EF-G
[7] = target: post-termination RF1-70S complex (Cy5.5-RF1 bound to the non-rotated 70S ribosome) (not stated | E. coli) (UniProt P0A7I0); assay: as above
[8] = target: 70S ribosome on biotinylated mRNA with the UAA stop codon in the A site (no release factor bound) (E. coli) (UniProt P0AG67); assay: single-molecule fluorescence in zero-mode waveguides (factor occupancy with intersubunit FRET); as a1 with Cy5.5-RF1 and dark RF3, 4 mM GTP, but at 30°C
[9] = target: 70S ribosome with bound wild-type (dark) RF3, rotated post-termination state (E. coli MG1655 K12 | E. coli) (UniProt P0A7I4); assay: as above
[10] = target: 70S ribosome with bound Cy5-RF3, rotated post-termination state (E. coli MG1655 K12 | E. coli) (UniProt P0A7I4); assay: single-molecule fluorescence in zero-mode waveguides (factor occupancy with intersubunit FRET); as a4 (MF-UAA mRNA, Cy5.5-RF1, Cy5-RF3, GTP) but at 12°C
[11] = target: 70S ribosome with bound Cy5-RF3, rotated post-termination state (E. coli MG1655 K12 | E. coli) (UniProt P0A7I4); assay: single-molecule fluorescence in zero-mode waveguides (factor occupancy with intersubunit FRET); ribosome immobilised through biotinylated mRNA; Cy5.5-RF1 and Cy5-RF3 tracked together, 4 mM GTP, Tris-based polymix buffer pH 7.5, 20°C
[12] = target: 70S ribosome on biotinylated mRNA with the UAA stop codon in the A site (no release factor bound) (E. coli) (UniProt P0AG67); assay: single-molecule fluorescence in zero-mode waveguides (factor occupancy with intersubunit FRET); Cy5.5-RF1 and Cy5-RF3 with GTP and the antimicrobial peptide Api137 added; occupancy limited by Cy5.5 photobleaching and movie time (6 min)
[13] = target: 70S ribosome with bound Cy5-RF3, rotated post-termination state (E. coli MG1655 K12 | E. coli) (UniProt P0A7I4); assay: single-molecule fluorescence in zero-mode waveguides (factor occupancy with intersubunit FRET); pre-elongated immobilised 70S with the stop codon in the A site; 75 nM Cy5-RF3, 20 nM Cy5.5-RF1, 4 mM GDPCP, polymix buffer, 20°C, no RRF or EF-G
[14] = target: 70S ribosome on biotinylated mRNA with the UAA stop codon in the A site (no release factor bound) (E. coli) (UniProt P0AG67); assay: single-molecule fluorescence in zero-mode waveguides (factor occupancy with intersubunit FRET); ribosome immobilised through biotinylated MF-UAA mRNA on Neutravidin; Cy5.5-RF1 or Cy5.5-RF2 with 0-200 nM dark RF3, RRF, EF-G, 4 mM GTP; Tris-based polymix buffer pH 7.5; 20°C
[15] = target: 70S ribosome with bound wild-type (dark) RF3, rotated post-termination state (E. coli MG1655 K12 | E. coli) (UniProt P0A7I4); assay: as above
[16] = target: 70S ribosome on biotinylated mRNA with the UAA stop codon in the A site (no release factor bound) (E. coli) (UniProt P0AG67); assay: single-molecule fluorescence in zero-mode waveguides (factor occupancy with intersubunit FRET); Cy5.5-RF1 in the absence of RRF, with and without RF3; first-bound and rebound RF1 events on the immobilised ribosome (Supplementary Figure S2); temperature not given
[17] = target: 70S ribosome with bound wild-type (dark) RF3, rotated post-termination state (E. coli MG1655 K12 | E. coli) (UniProt P0A7I4); assay: as above

- fold slow-down of dissociation at 12°C against 20°C [1]: 21 fold
- dissociation rate of the slowest phase of a triple exponential [2]: 0.3 s⁻¹
- k3off1 (sampling mode, fast phase of a double exponential) [3]: 4.6 s⁻¹
- k3off2 (sampling mode, slow phase of a double exponential) [3]: 0.25 s⁻¹
- kon [3]: 2e+06 M⁻¹ s⁻¹
- koff [4]: 4 s⁻¹
- k3off1 (sampling mode, fast phase of a double exponential) [5]: 1.3 s⁻¹
- k3off2 (sampling mode, slow phase of a double exponential) [5]: 0.3 s⁻¹
- kon [5]: 2.3e+06 M⁻¹ s⁻¹
- koff [6]: 0.0164 s⁻¹
- k3off1 (sampling mode, fast phase of a double exponential) [7]: 1.1 s⁻¹
- k3off2 (sampling mode, slow phase of a double exponential) [7]: 0.18 s⁻¹
- kon [7]: 2e+06 M⁻¹ s⁻¹
Substance: Cy5-RF3 (ybbR-tagged RF3 labelled with Cy5-CoA) (from UniProt P0A7I4 1-529) (natural protein)

- kiAR- (spontaneous and simultaneous dissociation and ribosome rotation from the post-termination ribosome) [8]: 0.072 s⁻¹
- koff [9]: 2.5 s⁻¹
- fold slow-down of dissociation at 12°C against 20°C [10]: 2.6 fold
- koff [11]: 0.69 s⁻¹
- occupancy time with Api137 (photobleaching and movie-time limit) [12]: 300 s
- koff [13]: 0.14 s⁻¹
- kiAR- (spontaneous and simultaneous dissociation and ribosome rotation from the post-termination ribosome) [14]: 0.027 s⁻¹
- kon [14]: 2.1e+07 M⁻¹ s⁻¹
- mean dwell time on the terminating ribosome in the absence of RF3 (tau 1BD-) [14]: 66 s
- k1RD+ (single RF1 binding event in the presence of RRF) [15]: 0.87 s⁻¹
- koff [15]: 0.76 s⁻¹
- kiAR- (first-bound ribosomes, no RRF) [16]: 0.04 s⁻¹
- kiAR- (rebound ribosomes, no RRF) [16]: 0.08 s⁻¹
- k1RD+ (first-bound RF1, no RRF) [17]: 0.77 s⁻¹
- k1RD+ (rebound RF1, no RRF) [17]: 1 s⁻¹
Substance: Cy5.5-labeled RF1 (from UniProt P0A7I0 1-360) (natural protein)

- kiAR- (spontaneous and simultaneous dissociation and ribosome rotation from the post-termination ribosome) [14]: 0.04 s⁻¹
- mean dwell time on the terminating ribosome in the absence of RF3 (tau 2BD-) [14]: 38 s
- koff [15]: 3.5 s⁻¹
Substance: Cy5.5-labeled RF2 (from UniProt P07012 1-365) (natural protein)
